Consider four molecules from patent publication US20220291209, “MOLECULAR TARGET IN CANCER” (The Regents of the University of California, published 2022).

Data set [1] concerns the target T1, U1A (UniProt P09012 P09012:1-282). Description: competition; displaces Target-Biotin RNA from U1A; titrated from 1000 nM; IC50 only in figure. As to conditions: tags: His tag, LS Bio G19194-10.
In data set [2] the target is T2, MSI2 (Musashi-2) (UniProt Q96DH6 Q96DH6:1-328). Put plainly: competition; displaces NUMB-Biotin RNA from MSI2; titrated from 1000 nM; IC50 only in figure. As to conditions: tags: His tag, LS Bio G2396.
Data set [3] addresses T1, U1A. Description: TR-FRET/HTRF; 5 nM U1A, 1.25 nM RNA; 150 mM NaCl, 25 mM HEPES pH 7.3, 1 mM DTT, 0.05% pluronic F-127, room temperature. Conditions: tags: His tag, LS Bio G19194-10; named Biotin5').
Data set [4] deals with T2, MSI2 (Musashi-2). Put plainly: TR-FRET/HTRF; 5 nM MSI2, 1.25 nM RNA; 150 mM NaCl, 25 mM HEPES pH 7.3, 1 mM DTT, 0.05% pluronic F-127, room temperature. As to conditions: tags: His tag, LS Bio G2396; named Biotin5').

T2 sequence (Q96DH6 whole entry, one chain of several): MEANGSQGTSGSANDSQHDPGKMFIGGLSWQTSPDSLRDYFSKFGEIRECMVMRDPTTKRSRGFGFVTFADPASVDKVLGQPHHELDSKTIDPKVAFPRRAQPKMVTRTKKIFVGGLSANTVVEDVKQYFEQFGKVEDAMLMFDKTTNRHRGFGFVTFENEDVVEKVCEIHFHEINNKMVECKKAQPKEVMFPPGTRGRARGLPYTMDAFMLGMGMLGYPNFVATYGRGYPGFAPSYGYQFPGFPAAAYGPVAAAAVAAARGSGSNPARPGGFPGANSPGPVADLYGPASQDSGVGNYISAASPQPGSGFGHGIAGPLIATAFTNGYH
T1 sequence (P09012 whole entry, one chain of several): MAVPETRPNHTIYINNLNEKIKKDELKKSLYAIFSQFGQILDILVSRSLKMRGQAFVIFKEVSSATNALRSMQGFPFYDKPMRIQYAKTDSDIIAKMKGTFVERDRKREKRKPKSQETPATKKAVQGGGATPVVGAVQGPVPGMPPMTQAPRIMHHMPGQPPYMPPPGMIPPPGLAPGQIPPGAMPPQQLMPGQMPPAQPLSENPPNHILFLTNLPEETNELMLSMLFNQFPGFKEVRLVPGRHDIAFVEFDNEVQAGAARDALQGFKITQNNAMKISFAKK

B1: U1A Target-CTRL RNA (unlabelled) (ssRNA)
RNA: AUUGCACUCCUUUUA
Turning to B1, in the data set with U1A [1], the binding result is “binds”.

B2: NUMB-CTRL RNA (unlabelled) (ssRNA)
RNA: UAGGUAGUAGUUUUA
Take B2: the binding result with MSI2 (Musashi-2) [2] is on record as “binds”.

B3: U1A Target-Biotin RNA probe (ssRNA)
RNA: AUUGCACUCCUUUUA
Turning to B3, in the data set with U1A [3], the binding result is given as “binds”.

B4: NUMB-Biotin RNA probe (ssRNA)
RNA: UAGGUAGUAGUUUUA
In the case of B4, in the data set with MSI2 (Musashi-2) [4], the binding result is “binds”.
